# Data reported in patent US9200040B2, “Specific binding agents of human angiopoietin-2” (Amgen Inc., priority 2001, dated 2015).
# Entries after “also recorded” stand apart in the source; their conditions may differ. Read-outs that look alike come from different tables or passages of the source. Primed or numbered codes have the meaning given here. Where no end group is shown, it is not given here. [ ]: non-standard residue; d: D form. Fc(5) = non-antigen-binding fragment of an antibody (vehicle) fused to the peptide
# B1: M-Fc-GGGGGAQQEECEWDPWTCEHMGSGSATGGSGSTASSGSGSATHQEECEWDPWTCEHMLE (protein)
# chain: M[Fc]GGGGGAQQEECEWDPWTCEHMGSGSATGGSGSTASSGSGSATHQEECEWDPWTCEHMLE
# Experiments:
# A431 tumor = conditions: p<0.0001
# Description: The doses of peptibody used were 1000, 200, 40 and 8 ug/mouse/day. A total of 20 doses was given to all animals. Tumor volumes and body weights were recorded three times/week. At the end of the study, animals were sacrificed, and their sera were collected for measuring peptibody levels by ELISA. Tumors and a panel of normal tissues were collected from all groups.
# Female nude mice were injected subcutaneously with 1×10^7 A431 cells on study day 0.
# huAng2 = target: T1, huAng2 (Homo sapiens, UniProt O15123); test: BIAcore binding to huAng2 (Example 9); conditions: Table 8
# T1 construct: purchased R&D Systems BNO12103A
# T1 sequence (O15123 68-496 limits assumed): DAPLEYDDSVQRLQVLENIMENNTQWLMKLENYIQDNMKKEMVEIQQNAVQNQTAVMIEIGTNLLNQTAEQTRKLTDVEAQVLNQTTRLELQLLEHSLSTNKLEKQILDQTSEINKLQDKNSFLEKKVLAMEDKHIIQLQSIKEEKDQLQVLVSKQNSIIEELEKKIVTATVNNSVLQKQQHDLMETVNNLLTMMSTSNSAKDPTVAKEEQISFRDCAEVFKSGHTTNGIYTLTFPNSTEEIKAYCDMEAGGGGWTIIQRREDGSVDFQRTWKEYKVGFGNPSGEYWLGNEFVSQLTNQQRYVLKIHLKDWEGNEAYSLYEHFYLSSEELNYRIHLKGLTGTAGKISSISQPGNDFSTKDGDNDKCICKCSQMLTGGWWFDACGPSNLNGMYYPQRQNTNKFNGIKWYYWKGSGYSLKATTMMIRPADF
# Description: Six samples of anti-Ang2 peptibodies were tested for their binding activity to huAng2 (R&D Systems, BNO12103A) on BIAcore. Protein G was immobilized to a CM5 chip according to the standard amine-coupling protocol (BIAcore Inc.), and the peptibodies were then injected over a protein G surface for capturing (RL˜100 Ru). To test binding between hAng2 and the captured peptibody, 0.3 nM to 40 nM of huAng2 was injected over the captured peptibody surfaces, and binding sensorgrams were analyzed using BIAevaluation 3.0 (BIAcore Inc.).
# [1] = system: VEGF-induced angiogenesis; test: Corneal angiogenesis model; assay type: in vivo
# Description: Ang-2 peptibody CON4(C) was evaluated in the corneal model of angiogenesis in rats. Angiogenesis was induced by implanting a VEGF- (or BSA control) soaked nylon disc into the corneal stroma (n=8/group). Peptibody TN8CON4-C was administered by sub-cutaneous injection at 1.0 or 0.1 mg/rat/day for seven days. Two other groups of animals were treated with the same dose of negative control peptibody 4883. All groups were pre-treated with a single loading dose of either 3.0 or 0.3 mg that was three times the maintenance dose of 1.0 or 0.1 mg (see figure). After seven days of treatment, two vascular endpoints were determined from each digital image of the rat cornea: the number of vessels intersecting the mid-point between the disc and the limbus, and the blood vessel area.
# hAng-1 [2] = target: T2, hAng-1 (Homo sapiens, UniProt Q15389); test: Affinity ELISA; assay type: binding; conditions: Table 5
# T2 sequence (Q15389 16-498): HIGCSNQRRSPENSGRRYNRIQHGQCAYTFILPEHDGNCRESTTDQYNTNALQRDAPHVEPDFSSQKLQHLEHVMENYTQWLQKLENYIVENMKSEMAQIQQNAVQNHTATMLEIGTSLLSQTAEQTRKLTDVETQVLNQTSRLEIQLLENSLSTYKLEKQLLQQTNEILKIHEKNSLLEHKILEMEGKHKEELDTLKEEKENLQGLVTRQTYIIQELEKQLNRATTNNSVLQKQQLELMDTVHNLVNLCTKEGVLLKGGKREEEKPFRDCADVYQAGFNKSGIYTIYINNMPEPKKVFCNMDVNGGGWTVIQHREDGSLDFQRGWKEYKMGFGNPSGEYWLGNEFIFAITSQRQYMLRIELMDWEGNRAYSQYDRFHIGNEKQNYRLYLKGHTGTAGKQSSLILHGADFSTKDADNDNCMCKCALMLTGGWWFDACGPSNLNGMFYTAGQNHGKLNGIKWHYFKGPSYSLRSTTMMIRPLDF
# hAng-2 = target: T3, hAng-2 (Homo sapiens, UniProt O15123); test: Affinity BIAcore (Example 2); assay type: binding; conditions: Table 6
# T3 construct: conditioned media of human 293T cells transfected with full length human Ang-2 DNA; made in house; host or cells: conditioned media
# T3 sequence (O15123 19-496): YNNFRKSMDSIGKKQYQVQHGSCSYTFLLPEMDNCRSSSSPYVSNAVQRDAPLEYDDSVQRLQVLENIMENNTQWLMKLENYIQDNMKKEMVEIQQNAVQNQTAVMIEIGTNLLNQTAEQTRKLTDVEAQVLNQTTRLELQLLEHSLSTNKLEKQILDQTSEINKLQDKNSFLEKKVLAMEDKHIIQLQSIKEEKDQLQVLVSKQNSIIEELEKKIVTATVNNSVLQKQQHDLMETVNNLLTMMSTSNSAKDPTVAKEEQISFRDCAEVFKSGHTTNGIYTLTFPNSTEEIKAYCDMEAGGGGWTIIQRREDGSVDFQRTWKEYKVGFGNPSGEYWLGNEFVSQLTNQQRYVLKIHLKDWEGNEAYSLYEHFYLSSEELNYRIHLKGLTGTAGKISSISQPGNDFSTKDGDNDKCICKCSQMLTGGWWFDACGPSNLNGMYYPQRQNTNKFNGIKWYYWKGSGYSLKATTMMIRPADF
# Description: (§1) Binding assays were carried out by first capturing about 100 Ru of each candidate anti-Ang-2 peptibody to the immobilized Protein G, after which various concentrations (0-100 nM) of huAng-2 or mAng-2 were injected over the bound antibody surface at a flow rate of 50 μl/min for 3 minutes. Peptibody binding kinetic parameters including ka (association rate constant), kd (dissociation rate constant) and KD (dissociation equilibrium constant) were determined using the BIA evaluation 3.1 computer program (Biacore, Inc.). Lower dissociation equilibrium constants indicated greater affinity of the peptibody for Ang-2.
# hAng-1 [3] = target: T2, hAng-1; test: Neutralization ELISA (Example 2); assay type: binding; conditions: Table 5; about 1 nM Tie-2-Fc
# mAng-2 = target: T4, mAng-2 (Mus musculus, UniProt O35608); test: Affinity BIAcore (Example 2); assay type: binding, murine; conditions: Table 6
# T4 construct: made in house
# T4 sequence (O35608 19-496): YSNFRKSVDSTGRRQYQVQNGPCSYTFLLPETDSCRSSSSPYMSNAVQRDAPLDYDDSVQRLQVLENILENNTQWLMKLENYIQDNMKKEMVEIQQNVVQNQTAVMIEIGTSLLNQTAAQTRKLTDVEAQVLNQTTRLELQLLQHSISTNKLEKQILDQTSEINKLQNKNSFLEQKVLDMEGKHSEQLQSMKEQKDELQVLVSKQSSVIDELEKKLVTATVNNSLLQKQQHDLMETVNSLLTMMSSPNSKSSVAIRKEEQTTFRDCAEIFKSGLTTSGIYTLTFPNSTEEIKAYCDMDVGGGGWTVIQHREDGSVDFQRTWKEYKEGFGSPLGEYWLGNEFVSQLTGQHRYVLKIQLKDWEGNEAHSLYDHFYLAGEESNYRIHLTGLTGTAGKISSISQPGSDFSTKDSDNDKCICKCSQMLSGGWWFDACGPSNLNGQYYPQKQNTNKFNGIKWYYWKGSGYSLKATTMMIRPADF
# Description: as §1
# Colo-205 tumor = system: Colo-205 tumor
# Description: Female nude mice were injected subcutaneously with 2×10^6 Colo-205 cells plus Matrigel (2:1) on study day 0. At day 3, the Ang-2 peptibodies L1-7-N, L1-21-N, Con4-C, and 2×Con4-C were administered subcutaneously at the dose of […], twice a week.
# Female nude mice were injected subcutaneously with 2×10^6 Colo-205 cells plus Matrigel (2:1) on study day 0.
# Female nude mice were injected subcutaneously with 2×10^6 Colo-205 cells plus Matrigel (2:1) on study day 0. At day 3, Ang-2 peptibody 2×Con4-C or control peptibody were administered subcutaneously at the dose of 350 μg/day. Tumors from groups treated with control peptibody (as described in Table 5) were harvested either at Day 14 (size-matched control) or Day 18 (time-matched control). Tumors from 2×Con4(C) treated group were then harvested at Day 18. Tumor volumes were recorded at regular intervals, as shown.
# Female nude mice were injected subcutaneously with 2×10^6 Colo-205 cells plus Matrigel (2:1) on study day 0. Treatment with 350 μg/mouse, s.c. twice a week, of the Ang-2 peptibody 2×Con4-C, or equivalent control peptibody started either at study day 3, 10 or 15. […] The results are set forth in FIG. 8 (body weights not shown).
# Female nude mice were injected subcutaneously with 2×10^6 Colo-205 cells plus Matrigel (2:1) on study day 0. At study day 14, treatments were started with a) 350 μg/mouse, s.c. twice a week, of the Ang-2 peptibody 2×Con4-C, b) 20 mg/kg qwx3 i.p. of taxotere, or c) a combination of both.
# Female nude mice were injected subcutaneously with 2×10^6 Colo-205 cells plus Matrigel (2:1) on study day 0. At study day 14 started treatments with a) 350 μg/mouse, s.c. twice a week, of the Ang-2 peptibody 2×Con4-C, b) 50 mg/kg qdx5 i.p. of 5-FU, or c) a combination of both.
molecule,measurement,setting,value
M-Fc-GGGGGAQQEECEWDPWTCEHMLE (M[Fc]GGGGGAQQEECEWDPWTCEHMLE; cysteine pairing not given here) [Con4 (C)],tumor growth vs. vehicle control,"A431 tumor; s.c. once per day, 1000, 200, 40 and 8 ug/mouse/day, 20 doses",inhibited tumor growth
same,ka,huAng2,530000 M⁻¹ s⁻¹
same,kd,huAng2,0.0002 s⁻¹
same,overt toxicity based on body weights,[1]; 1.0 or 0.1 mg/rat/day s.c. for seven days,no evidence of overt toxicity
same,"VEGF-induced angiogenesis (number of vessels, blood vessel area)","[1]; s.c. 1.0 or 0.1 mg/rat/day for seven days after loading dose 3.0 or 0.3 mg, p<0.04",significantly inhibited VEGF-induced angiogenesis in a dose-dependent manner
MGAQQEECEWDPWTCEHMLEGGGGG-Fc (MGAQQEECEWDPWTCEHMLEGGGGG-{Fc(5)}; not fully specified (bridges); printed as MGAQQEECEWDPWTCEHMLEGGGGG-Fc; cysteine pairing not given here) [Con4 (N)],hAng-1 EC 50,hAng-1 [2],No
same,hAng-2 ka,hAng-2,330000 M⁻¹ s⁻¹
same,hAng-2 kd,hAng-2,0.00022 s⁻¹
same,hAng-1 IC 50,hAng-1 [3],No In-
same,mAng-2 ka,mAng-2,730000 M⁻¹ s⁻¹
same,mAng-2 kd,mAng-2,0.00044 s⁻¹
B1,body weights,Colo-205 tumor; Example 15,no significant effect on body weights
same,tumor growth vs. vehicle control and control peptibody,"Colo-205 tumor; Example 15: s.c. 14, 2.8 and 0.56 μg/mouse twice a week, p=0.003 intermediate dose, p<0.0001 high dose",Significant differences in tumor growth were observed between the two higher doses
same,body weight,Colo-205 tumor; Example 16,no significant effect on body weight
same,tumor growth vs. time-matched control group,"Colo-205 tumor; Example 16: s.c. 350 μg/day from day 3, harvested Day 18, p=0.0154",Significant differences in tumor growth
same,body weights,Colo-205 tumor; Example 17,no significant effect on body weights
same,tumor growth vs. vehicle control,"Colo-205 tumor; Example 17: 350 μg/mouse s.c. twice a week started at study day 3, 10 or 15, p=0.089 day 15 group, p<0.0001 day 3 and 10 groups, listed as 2×Con4-C",capable of inhibiting Colo205 tumor growth irrespective of when dosing begins; also recorded: Significant differences in tumor growth
same,body weights,Colo-205 tumor; Example 19a,no significant effect on body weights
same,tumor growth vs. vehicle control,"Colo-205 tumor; Example 19a, from study day 14: 2×Con4-C 350 μg/mouse s.c. twice a week, taxotere 20 mg/kg qwx3 i.p., or both, p<0.0001",Significant differences in tumor growth
same,tumor growth vs. vehicle control,"Colo-205 tumor; Example 19b, from study day 14: 2×Con4-C 350 μg/mouse s.c. twice a week, 5-FU 50 mg/kg qdx5 i.p., or both, p<0.0001",Significant differences in tumor growth
same,tumor growth vs. vehicle control and control peptibody,A431 tumor; 200 μg/mouse/day s.c. from day 3,Significant differences in tumor growth
same,ka,huAng2,480000 M⁻¹ s⁻¹
same,kd,huAng2,0.00016 s⁻¹
